Results published in patent US20040175377A1, “Agent and method for reducing intraocular pressure” (priority 2000, published 2004).

B1: Hep II domain: recombinant 33 kilodalton Hep II domain of fibronectin containing type III repeats 12, 13 and 14 (SEQ ID NO:2) (protein, listed as Homo sapiens)
chain: IPAPTDLKFTQVTPTSLSAQWTPPNVQLTGYRVRVTPKEKTGPMKEINLAPDSSSVVVSGLMVATKYEVSVYALKDTLTSRPAQGVVTTLENVSPPRRARVTDATETTITISWRTKTETITGFQVDAVPANGQTPIQRTIKPDVRSYTITGLQPGTDYKIYLYTLNDNARSSPVVIDASTAIDAPSNLRFLATTPNSLLVSWQPPRARITGYIIKYEKPGSPPREVVPRPRPGVTEATITGLEPGTEYTIYVIALKNNQKSEPLIGRKKT

Legend:
[1] = system: differentiated human TM (HTM) cell cultures; test: Differentiated HTM cell cultures incubated with recombinant protein; extracellular matrix and cell contacts by immunofluorescence, phase microscopy and western blot; format: cell-based; conditions: for disruption of cell contacts or matrix assembly: pentapeptides administered separately to HTM cell cultures
Procedure: (§1) Differentiated human TM (HTM) cell cultures were incubated with a recombinant Hep II domain protein for eighteen hours. The effect on the extracellular matrix and cell contacts were observed using immunofluorescence microcopy, phase microscopy and western blot. Differentiated HTM cultures look like endothelial cells and form cell to cell junctions and closely resemble TM cells in vivo. Differentiated HTM cells also secrete matrix proteins such as fibronectin, type IV collagen and laminin. Non-differentiated cells lack these qualities and are less suitable for in vitro analysis methods. Cells were grown as described in Polansky J R, Weinreb R, Alvarado J A. Studies on human trabecular cells propagated in vitro. Vis Res 1981;21 :155-60 and Polansky J R, Weinreb R N, Baxter J D, Alvarado J. Human trabecular cells. I. Establishment in tissue culture and growth characteristics. Invest Ophthalmol Vis Sci 1979;18:1043-9, both incorporated by reference in their entirety.
After incubation, the turnover of fibronectin fibrils, a good indicator of matrix formation, was studied. […] The Hep II protein was a GST protein. The GST portion was cleaved with thrombin as described by Bultmann, H., et al., Fibronectin Fibrilogenesis Involves the Heparin II Binding Domains of Fibronectin, J. Biol. Chem. 273:2601-2609 (1998).
To identify the active region of the Hep II domain, smaller fragments including either the Type III repeat 12, the Type III repeat 14, or the Type III repeats 13 and 14 were produced as recombinant GST proteins, as above.

[2] = system: human trabecular meshwork organ culture (eye); test: Human eye organ culture perfusion, paired control and test eyes, IOP
Procedure: While this effect on matrix formation was relatively slow, the Hep II domain acts quickly in intact eyes to increase outflow facility. In human eye culture studies using pairs of control and test eyes, as described by Johnson, D H and Tschumper, R C. (1987) Human Trabecular Meshwork Organ Culture. IVOS 28:945-953, incorporated by reference, a baseline IOP was determined, pumps were turned off and the Hep II domain was injected at 13.8 μM into the anterior chamber of one eye. The pumps were kept off for four hours to allow the Hep II domain to mix with the contents of the anterior chamber. After four hours, the treated eyes were perfused with buffer containing the Hep II domain at 13.8 μM for twenty-four hours. Untreated eyes were perfused with buffer. […] After twenty-four hours, the pumps were turned off and the perfusate in both eyes was replaced with fresh buffer without the protein.

vinculin = test: Tyrosine phosphorylation of vinculin after treatment; format: cell-based, human; conditions: after treatment of the eye with the Hep II domain
Procedure: as §1
Further, a number of morphological changes also indicate disrupted cell contacts. […] Vinculin is a major structural protein that maintain cell-cell and cell-adhesion contracts. Changes in its phosphorylation state indicate that the treatment has biochemically affected the molecules that maintain cell-cell and cell-adhesion contracts. […]

[3] = system: Schlemm's canal endothelium and extracellular matrix of the eye; test: Light and electron microscopy of fixed treated and untreated organ-cultured eyes; design: species or system human; conditions: fixed eyes after perfusion
Description: The treated and untreated eyes were then fixed and prepared for both light and electron microscopy. […] Part of the inner side of the cannel was disrupted and small discontinuous cellular processes replaced a continuous cell layer found in a normal eye. […] These changes can account for the increased outflow in the presence of the Hep II domain since they would have created additional spaces or openings for fluid flow.

Molecule	disruption of cell contacts or matrix assembly [1]	decrease in IOP ([2]; 13.8 μM injected into the anterior chamber, pumps off four hours, then perfusion at 13.8 μM for twenty-four hours, versus baseline) [%]	pressure in the treated eye after replacement of perfusate with buffer without the protein ([2]; after twenty-four hours perfusion, absence of the Hep II domain)	treated organ-cultured eyes with lower IOP after treatment ([2]; plurality of assays, number of treated eyes)	tyrosine phosphorylation of vinculin (vinculin)	electron microscopy, endothelium in Schlemm's canal [3]	electron microscopy, extracellular matrix in the juxtacanalicular region [3]	light microscopy, treated versus untreated eyes [3]	level of fibronectin matrixes (turnover of fibronectin fibrils) ([1]; HTM cell cultures, 4.6 μM, eighteen hours incubation)	morphological changes indicating disrupted cell contacts ([1]; compared to untreated cultures)	morphological changes at higher peptide concentrations ([1]; higher peptide concentrations)
IDAPS (listed as Homo sapiens)	neither disrupted cell contacts or matrix assembly										
PRARI (listed as Homo sapiens)	neither disrupted cell contacts or matrix assembly										
B1		32	returned to the baseline level	six of seven	significant increase	altered	altered and amorphous material appeared in the cribiform meshwork	not distinguishable	dramatic decrease	increase in the number of retraction fibers	retraction and rounding up of many cells
